The assay addresses IE-3 fragment antigen-binding (Fab) region, recombinant, labelled (labeled with the Blue-NHS labeling kit (chain not told) | labeled with the Blue-NHS labeling kit (chain not told)). Nature of the assay: MST.

Experimental findings from paper doi:10.1101/2025.03.03.641048 (2025) are described below.

What is called Kd is the constant that tells how readily two partners part at equilibrium. As to TIKVVGGYQVNIRVGDTTTDVRYKDDMYHFFCPAIQ (domain or fragment) [mZP2 T103-Q138 linear epitope fused to maltose-binding protein], the dissociation constant Kd worked out at 8.9 nM.

B1: rZP2-N1 S113R (domain or fragment)
chain: SLPQSENPAFPGTLICDKDEVRVEFSSRFDMEKWNPSLVDTFGNEISSCTYALDLEKFILKFPYETCTIKVIGGYQVNIRVQDTNADVRYKDDVHHFFCPAIQ
For B1, the Kd is 16.3 nM.

B2: mouse ZP2 N-terminal ZP-N1 domain (mZP2-N1), His-tagged (domain or fragment)
chain: VSLPQSENPAFPGTLICDKDEVRIEFSSRFDMEKWNPSVVDTLGSEILNCTYALDLERFVLKFPYETCTIKVVGGYQVNIRVGDTTTDVRYKDDMYHFFCPAIQ
Regarding B2, the Kd is 0.3 nM.
